Experimental data from patent publication US20040018172A1 (US Dept. of Health and Human Services, published 2004).

T1: ^125I-IFN-α2b binding site on Daudi and WISH cells (human)
T1 chain 1: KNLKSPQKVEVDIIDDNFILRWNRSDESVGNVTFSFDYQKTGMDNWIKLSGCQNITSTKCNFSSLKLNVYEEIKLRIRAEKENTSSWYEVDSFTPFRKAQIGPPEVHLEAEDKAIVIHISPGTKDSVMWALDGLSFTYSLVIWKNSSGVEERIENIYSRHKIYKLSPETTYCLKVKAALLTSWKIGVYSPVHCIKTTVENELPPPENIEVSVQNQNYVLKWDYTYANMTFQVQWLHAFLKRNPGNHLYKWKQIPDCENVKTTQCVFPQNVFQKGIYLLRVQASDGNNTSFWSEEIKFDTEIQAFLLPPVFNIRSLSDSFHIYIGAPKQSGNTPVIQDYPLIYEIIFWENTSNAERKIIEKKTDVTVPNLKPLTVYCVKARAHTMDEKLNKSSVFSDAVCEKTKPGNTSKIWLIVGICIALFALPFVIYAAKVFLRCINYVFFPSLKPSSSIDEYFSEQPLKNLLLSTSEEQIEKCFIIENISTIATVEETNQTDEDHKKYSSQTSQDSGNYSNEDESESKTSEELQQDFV
T1 chain 2: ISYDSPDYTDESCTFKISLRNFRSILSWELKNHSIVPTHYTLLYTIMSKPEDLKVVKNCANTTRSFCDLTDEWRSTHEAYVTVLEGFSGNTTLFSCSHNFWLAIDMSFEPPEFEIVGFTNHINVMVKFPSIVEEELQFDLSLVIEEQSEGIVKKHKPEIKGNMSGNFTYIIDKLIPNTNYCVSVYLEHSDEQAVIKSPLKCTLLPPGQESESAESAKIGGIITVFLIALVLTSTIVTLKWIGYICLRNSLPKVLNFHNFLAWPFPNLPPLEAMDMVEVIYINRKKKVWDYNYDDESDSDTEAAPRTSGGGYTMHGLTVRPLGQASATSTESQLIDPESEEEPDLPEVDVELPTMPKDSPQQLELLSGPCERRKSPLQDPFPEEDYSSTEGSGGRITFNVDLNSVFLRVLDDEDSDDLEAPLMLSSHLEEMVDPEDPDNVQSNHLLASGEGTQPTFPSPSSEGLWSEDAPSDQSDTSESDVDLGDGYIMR

B1: IFN-α21a (ligand, human, UniProt P01568 24-189, looked up)
chain: CDLPQTHSLGNRRALILLAQMGRISPFSCLKDRHDFGFPQEEFDGNQFQKAQAISVLHEMIQQTFNLFSTKDSSATWEQSLLEKFSTELNQQLNDLEACVIQEVGVEETPLMNVDSILAVKKYFQRITLYLTEKKYSPCAWEVVRAEIMRSFSLSKIFQERLRRKE
notes: mature; Recombinant, made in E. coli from pQE30/A21 and purified on Ni-NTA, so an amino-terminal hexa-histidine tag may be present; also called interferon-α21a; IFNA21
B2: HY-2: IFN-α21a(1-95)/IFN-α2c(96-166) (ligand)
chain: CDLPQTHSLGNRRALILLAQMGRISPFSCLKDRHDFGFPQEEFDGNQFQKAQAISVLHEMIQQTFNLFSTKDSSATWEQSLLEKFSTELNQQLNDLEACVIQGVGVTETPLMKEDSILAVRKYFQRITLYLKEKKYSPCAWEVVRAEIMRSFSLSTNLQESLRSKE
notes: Expressed from pQE30 in E. coli and purified on Ni-NTA, so an amino-terminal hexa-histidine tag may be present; also called AF085804

What was measured:
[1] = target: T1, ^125I-IFN-α2b binding site on Daudi and …; test: displacement of ^125I-IFN-α2b from Daudi cells (competitor: ^125I-IFN-α2b)
[2] = target: T1, ^125I-IFN-α2b binding site on Daudi and …; test: displacement of ^125I-IFN-α2b from WISH cells (competitor: ^125I-IFN-α2b)

| Binder | IC50 [1] [µg/mL] | IC50 [2] [µg/mL] |
| --- | --- | --- |
| B1 | > 0.4 | > 0.2 |
| B2 | > 0.4 | > 0.2 |
